The values that follow come from patent US7429474B2, “2-O sulfatase compositions and methods of analyzing therewith” (Massachusetts Institute of Technology, priority 2003, dated 2008).

Entries after “also recorded” stand apart in the source; their conditions may differ. Where only a bound is given, the exact number is not on record here.

By Km is commonly meant the concentration of substrate that gives half-maximal velocity. Usually kcat stands for the number of substrate molecules converted per active site and unit of time at saturation. The kcat/Km is the second-order rate constant that governs catalysis at low substrate concentration.

The subject of data set [1] is 2-O sulfatase. Nature of the data set: effect of ionic strength, metal ions, EDTA, buffers and cysteine-reactive agents on 2-O sulfatase activity. The format is biochemical, F. heparinum. Conditions: for effect of additive on enzyme activity: EDTA up to 1 mM, CaCl2, MgCl2, MnCl2 up to 10 mM, DTNB, DTT, 50 mM phosphate buffer pH 6.5. The method, then:
For pilot experiments measuring the relative effect of ionic strength on 2-O sulfatase activity, the NaCl concentration was varied from 0.05 to 1 M in 50 mM MES buffer (pH 6.5) that included 500 μM of the disulfated disaccharide ΔU2SHNS,6S and 50 nM enzyme. The effect of pH on sulfatase activity was assessed as a function of catalytic efficiency by measuring kinetic parameters in the following two overlapping pH buffer systems ranging from 5.0 to 8.0: 50 mM MES at pH 5.0, 5.5, 6.5, and 7.0; 50 mM MOPS at pH 6.5, 7.0, 7.5 and 8.0. Assays included 25 nM enzyme, 50 mM NaCl and varying concentrations of the disulfated disaccharide substrate ΔU2SHNS. Km and kcat values were extrapolated from Vo vs. [S] curves fit to the Michaelis-Menten equation by a non-linear least squares regression and the relative kcat/Km ratios plotted as a function of buffer pH. […] Relative activities were measured at a single saturating substrate concentration (4 mM) using ΔU2SHNS.
We also examined 2-O sulfatase activity relative to ionic composition.

Data set [2] has as its target T1, 2-O sulfatase (2-O ΔN^1-24) (Pedobacter heparinus, UniProt C6Y1N2). Nature of the data set: 2-O sulfatase assay and disaccharide substrate kinetics by capillary electrophoresis. The format is biochemical, F. heparinum.
Data set [3] concerns 2-O sulfatase. Put plainly: desulfation of 2-O sulfated chondroitin disaccharides under extended and exhaustive conditions. The format is biochemical, F. heparinum. The note with it: 4× higher enzyme concentration, 20 minute period.
Data set [4] concerns the target T1, 2-O sulfatase (2-O ΔN^1-24). Put plainly: exolytic desulfation of oligosaccharides by 2-O sulfatase (CE compositional analysis and MALDI-MS). Format: biochemical, F. heparinum.
The nature of data set [5]: biochemical reaction conditions (pH, ionic strength, temperature) for recombinant 2-O sulfatase. The note with it: for activity at outlying pH values of 5 and 8: pH 5.0 and 8.0. The method, then: FIG. 6 provides the in vitro biochemical reaction conditions for the recombinant 2-O sulfatase. Panel (A) illustrates the effect of pH. Sulfatase catalytic efficiency (kcat/Km) was measured as a function of varying pH from 5 to 8 using two overlapping buffers: 50 mM MES (solid circles) and 50 mM MOPS (open circles). Inset: Relative effect of three different assay buffers (each at pH 6.5) on optimal enzyme activity. 1.50 mM MES; 2.50 mM imidazole; 3.50 mM sodium phosphate. Panel (B) illustrates the effect of ionic strength. Shown here is % activity normalized to 50 mM NaCl. Panel (C) illustrates the effect of reaction temperature. Data is normalized to 30° C. activity (100%). The unsaturated disaccharide ΔU2SHNS was used in all three experiments.
For pilot experiments measuring the relative effect of ionic strength on 2-O sulfatase activity, the NaCl concentration was varied from 0.05 to 1 M in 50 mM MES buffer (pH 6.5) that included 500 μM of the disulfated disaccharide ΔU2SHNS,6S and 50 nM enzyme. The effect of pH on sulfatase activity was assessed as a function of catalytic efficiency by measuring kinetic parameters in the following two overlapping pH buffer systems ranging from 5.0 to 8.0: 50 mM MES at pH 5.0, 5.5, 6.5, and 7.0; 50 mM MOPS at pH 6.5, 7.0, 7.5 and 8.0. Assays included 25 nM enzyme, 50 mM NaCl and varying concentrations of the disulfated disaccharide substrate ΔU2SHNS. Km and kcat values were extrapolated from Vo vs. [S] curves fit to the Michaelis-Menten equation by a non-linear least squares regression and the relative kcat/Km ratios plotted as a function of buffer pH. Based on this profile, relative enzyme activity was also measured in four different buffers (MES, imidazole, ADA, and sodium phosphate) each present as a 50 mM concentration at pH 6.5. Relative activities were measured at a single saturating substrate concentration (4 mM) using ΔU2SHNS.
These parameters included pH, temperature, ionic strength, and possible divalent metal ion dependency.
37° C. was the default temperature at which all of the preliminary biochemical experiments were conducted. We measured both relative enzyme activity and stability as a function of varying reaction temperature (FIG. 6, Paenl (C)). The 2-O sulfatase was active over a fairly broad temperature range (25° C. to 37° C.), with optimal activity occurring at 30° C. Enzyme activity was compromised at 42° C. Enzyme stability at this temperature was likewise affected as assessed in pre-incubation experiments conducted at varying temperatures (30° C.→42° C.) prior to measuring 2-O sulfatase activity at 30° C.

For data set [6] the following is noted: −85° C., 10% glycerol.
Substrate in data set [7]: CC(=O)N[C@H]1C(O)O[C@H](CO)[C@@H](O[C@@H]2OC(C(=O)O)=C[C@H](O)[C@H]2OS(=O)(=O)O)[C@@H]1O
Nature of the data set: 2-O sulfatase assay and disaccharide substrate kinetics by capillary electrophoresis. Format: biochemical, F. heparinum. The note with it: other: 25 nM 2-O ΔN^1-24, 50 mM imidazole pH 6.5, 50 mM NaCl, 30° C., chondroitin disaccharide approximated from double reciprocal plots.

Substrate in data set [8]: CC(=O)N[C@H]1C(O)O[C@H](COS(=O)(=O)O)[C@@H](O[C@@H]2OC(C(=O)O)=C[C@H](O)[C@H]2OS(=O)(=O)O)[C@@H]1O
The data set is described as above. Format: biochemical, F. heparinum. Conditions: other: 25 nM 2-O ΔN^1-24, 50 mM imidazole pH 6.5, 50 mM NaCl, 30° C., chondroitin disaccharide approximated from double reciprocal plots.

Substrate in data set [9]: O=C(O)C1=C[C@H](O)[C@@H](OS(=O)(=O)O)[C@H](O[C@H]2[C@H](O)[C@@H](NS(=O)(=O)O)C(O)O[C@@H]2CO)O1
The data set is described as above. Format: biochemical, F. heparinum. The note with it: other: 25 nM 2-O ΔN^1-24, 50 mM imidazole pH 6.5, 50 mM NaCl, 30° C., chondroitin disaccharide approximated from double reciprocal plots.

Substrate in data set [10]: O=C(O)C1=C[C@H](O)[C@@H](OS(=O)(=O)O)[C@H](O[C@H]2[C@H](O)[C@@H](NS(=O)(=O)O)C(O)O[C@@H]2COS(=O)(=O)O)O1
The data set is described as above. Format: biochemical, F. heparinum. The note with it: other: 25 nM 2-O ΔN^1-24, 50 mM imidazole pH 6.5, 50 mM NaCl, 30° C., chondroitin disaccharide approximated from double reciprocal plots.

On to `[Cl-].[Cl-].[Mg+2]` [MgCl2], for which the “effect of additive on enzyme activity” value in [1] is “no substantive effect”.
Take `CC(=O)N[C@H]1C(O)O[C@H](COS(=O)(=O)O)[C@H](O)[C@@H]1O[C@@H]1OC(C(=O)O)=C[C@H](O)[C@H]1OS(=O)(=O)O` (some centres unmarked) [ΔU2SGalNac.6S]: the Km in data set [2] (25 nM 2-O ΔN^1-24, 50 mM imidazole pH 6.5, 50 mM NaCl, 30° C., chondroitin disaccharide approximated from double reciprocal plots) is over 10000 µM. For the same molecule, the kcat in data set [2] (25 nM 2-O ΔN^1-24, 50 mM imidazole pH 6.5, 50 mM NaCl, 30° C., substrate 0.1-4 mM, chondroitin disaccharide approximated from double reciprocal plots) is under 100 s⁻¹. The “hydrolysis under the standard kinetic conditions” value in [2] (same kinetic conditions as heparin disaccharides) is recorded as “albeit neglibly, hydrolyzed; also recorded: only neglibly hydrolyzed”. The substrate desulfated entry in data set [3] is recorded as “approximately 40%”.
For `O=C(O)c1cc(SSc2ccc([N+](=O)[O-])c(C(=O)O)c2)ccc1[N+](=O)[O-]` [DTNB], the “effect of additive on enzyme activity” value in data set [1] is “not inhibited”.
Same read-out and setting: the result for `[Cl][Mn][Cl]` [MnCl2] reads “no substantive effect”.
Turning to `O=C(O)CN(CCN(CC(=O)O)CC(=O)O)CC(=O)O` [EDTA], in data set [1], the “effect of additive on enzyme activity” value is “largely unaffected”. In addition, the inhibition of activity entry in data set [1] (preincubation of enzyme with 5 mM EDTA, trisulfated disaccharide substrate) was “approximately 10%”.
For the molecule `CC(=O)N[C@H]1C(O)O[C@H](CO)[C@H](OS(=O)(=O)O)[C@@H]1O[C@@H]1OC(C(=O)O)=C[C@H](O)[C@H]1OS(=O)(=O)O` (some centres unmarked) [ΔU2SGalNAc,4S], in data set [3], the substrate desulfated result is given as “less than 10%”.
`O=C(O)C1=C[C@H](O)[C@@H](OS(=O)(=O)O)[C@H](O[C@H]2[C@H](O)[C@@H](NS(=O)(=O)O)C(O)O[C@@H]2COS(=O)(=O)O)O1` (some centres unmarked) [ΔU2SHNS,6S]: in data set [2] (ΔU2SHNS,6S versus ΔUHNS,6S, CE), the “position specificity of desulfation by the recombinant sulfatase” value is “only hydrolyzed a single sulfate, namely, the one found at the 2-OH position”.
Consider `CC(=O)NC1C(OC2C(C(=O)O)OC(OC3C(COS(=O)(=O)O)OC(O)C(NS(=O)(=O)O)C3OS(=O)(=O)O)C(O)C2O)OC(COS(=O)(=O)O)C(OC2OC(C(=O)O)C(OC3OC(COS(=O)(=O)O)C(OC4OC(C(=O)O)C(OC5OC(COS(=O)(=O)O)C(OC6OC(C(=O)O)C(OC7OC(COS(=O)(=O)O)C(OC8OC(C(=O)O)=CC(O)C8OS(=O)(=O)O)C(O)C7NS(=O)(=O)O)C(O)C6OS(=O)(=O)O)C(O)C5NS(=O)(=O)O)C(O)C4OS(=O)(=O)O)C(O)C3NS(=O)(=O)O)C(O)C2O)C1O` [AT-10, ΔU2SHNS,6SI2SHNS,6SI2SHNS,6SIHNAc,6SGHNS,3S,6S], for which the “disappearance of disaccharide ΔU2SHNS,6S in compositional analysis” value in data set [4] (2-O sulfatase then exhaustive heparinase treatment, CE) is listed as “by only one-third”. In addition, the “sulfates lost after exhaustive 2-O sulfatase treatment (mass spectrometry)” value in [4] (MALDI-MS) is “Loss of a single sulfate”.
As to `O[C@@H](CS)[C@@H](O)CS` [DTT], the “effect of additive on enzyme activity” value in data set [1] was “not inhibited”.
On the same count and under the same terms, under `[Ca+2].[Cl-].[Cl-]` [CaCl2] stands “no substantive effect”.

B1: 2-O sulfatase: recombinant F. heparinum 2-O sulfatase expressed in E. coli; experiments used the truncated enzyme with the histidine tag cleaved (protein, listed as Flavobacterium heparinum)
chain: MKMYKSKGWLIAMLILAGFGDAGAQTSKVAASRPNIIIIMTDQQTADAMSNAGNKDLHTPAMDVLAANGTRFTRAYCAQPLCTPSRSAIFSGKMPHETGFTGNTPEKDGQWPDSVLMMGKIFKAGGYKTGYVGKWHLPVPVTKVAQHGFETIENTGMGDYTDAVTPSQCANFNKKNKDNPFLLVASFLNPHDICEWARGDNLKMDVLDAAPDTAFCPKLPANWPIPAFEPAIVREQQKVNPRTYPSVGWNESQWRKYRWAYNRLVEKVDNYMAMVLGSLKKYGIEDNTIIIFTSDHGDGYAAHEWNQKQILYEEAARIPFIISKIGQWKARTDDQLVCNGIDIIPTICGFAGIAKPVGLKGLDLSKRIANPSVKLRDTLVIETDFADNELLLGIKGRAVITKDFKYIVYDKGEIREQLFDLEKDAGEMDNLAVKPAYKKKLNEMRAYLKLWCKQHQDSFYALKK
With B1, in [5] (50 mM MES / MOPS, pH 5 to 8), the pH activity range was 6.0-7.0 and the “pH optimum of activity (catalytic efficiency)” value is recorded as 6.5. Moreover, the “enzyme activity at 42° C.” value in [5] (42° C.) is “compromised”. For the same molecule, the “NaCl concentration of optimal activity” value in [5] (NaCl titration) is on record as “approximately 50 mM”. In data set [5], the “activity at outlying pH values of 5 and 8” value is given as “essentially no activity”. Moreover, in data set [5] (listed as flavobacterial sulfatase), the “activity at outlying pH values of 5 and 8” value was “essentially inactive”. The “temperature of optimal activity” value in [5] (varying reaction temperature) turned out to be 30 °C. In addition, in [6], the “activity after long-term storage, freezing and thawing” value is reported as “without any subsequent loss of activity”.

B2: 2-O sulfatase (2-O ΔN^1-24) (Pedobacter heparinus DSM 2366) (protein)
chain: QTSKVAASRPNIIIIMTDQQTADAMSNAGNKDLHTPAMDVLAANGTRFTRAYCAQPLCTPSRSAIFSGKMPHETGFTGNTPEKDGQWPDSVLMMGKIFKAGGYKTGYVGKWHLPVPVTKVAQHGFETIENTGMGDYTDAVTPSQCANFIKKNKDNPFLLVASFLNPHDICEWARGDNLKMDVLDAAPDTAFCPKLPANWPIPAFEPAIVREQQKVNPRTYPSVGWNESQWRKYRWAYNRLVEKVDNYMAMVLGSLKKYGIEDNTIIIFTSDHGDGYAAHEWNQKQILYEEAARIPFIISKIGQWKARTDDQLVCNGIDIIPTICGFAGIAKPVGLKGLDLSKRIANPSVKLRDTLVIETDFADNELLLGIKGRAVITKDFKYIVYDKGEIREQLFDLEKDAGEMDNLAVKPAYKKKLNEMRAYLKLWCKQHQDSFYALKK
Consider B2, for which the Km was 4660 µM in data set [7], 515 µM in data set [8], 1060 µM in [9] and 87 µM in [10]. The kcat in data set [7] stood at 673 s⁻¹; in data set [8] it was 1670 s⁻¹; in data set [9], 911 s⁻¹; in data set [10], 814 s⁻¹. Also, the kcat/Km in data set [7] amounted to 144000 M⁻¹ s⁻¹; in [8], 3.25e+06 M⁻¹ s⁻¹; in data set [9], 859000 M⁻¹ s⁻¹; in data set [10], 9.36e+06 M⁻¹ s⁻¹.
